± gives the standard deviation of the averaged measurements.

The test system of this data set is Saccharomyces cerevisiae. The data set can be described thus: protein stability index of tFT-peptide fusion (C-terminal peptide) (PSI (0-1 scale)); higher = more stable (slower turnover). The conditions noted are these: temperature: 30 C. How it is done:
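MPS profiling in S. cerevisiae of the yeast C-terminome library: the last 12 aa of each annotated ORF are fused to the C-terminus of a sfGFP-mCherry timer, after a GGGS linker. Cells are FACS-sorted into 8 mCherry/sfGFP bins and deep-sequenced. PSI runs from 0 (unstable) to 1 (stable); wild type and das1Δ backgrounds, two technical replicates each.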

The mark [1] stands for this setting: genetic background: das1 deletion.

In the case of “AIAPTSLLTPMP [YER087C-A C-terminal 12 aa]”, the protein stability index amounted to 0.6937 ± 0.0021 under setting [1] and 0.733 ± 0.013 (genetic background: wild type).
AIARCALGETLL [CAR1 C-terminal 12 aa]: the protein stability index runs as follows: under setting [1], 0.685 ± 0.011; (genetic background: wild type) 0.641 ± 0.011.
Take AKAQSQALVTGM [PCL6 C-terminal 12 aa]: the protein stability index by setting is: under setting [1], 0.6806 ± 0.0011; (genetic background: wild type) 0.685 ± 0.035.
AKKKKKRIRGFG [RRN6 C-terminal 12 aa]: the protein stability index is, setting by setting: under setting [1], 0.686 ± 0.015; (genetic background: wild type) 0.671 ± 0.034.
Regarding ALHSEEASFHSL [AIM21 C-terminal 12 aa], the protein stability index amounted to 0.709 ± 0.012 under setting [1] and 0.7 ± 0.021 (genetic background: wild type).
ALKLRALEKLSF [NCS6 C-terminal 12 aa]: the protein stability index worked out at 0.711 ± 0.014 under setting [1] and 0.697 ± 0.037 (genetic background: wild type).
As to ALLILVLGWFYR [SCS2 C-terminal 12 aa], the protein stability index was determined as 0.405 ± 0.027 under setting [1] and 0.4 ± 0.0047 (genetic background: wild type).
For ALPNWNTPYLRR [UCC1 C-terminal 12 aa] the same measures were 0.719 ± 0.015 and 0.746 ± 0.023.
As for ANHNNQRAGYFL [SIT4 C-terminal 12 aa], the protein stability index reads like this: under setting [1], 0.699 ± 0.02; (genetic background: wild type) 0.652 ± 0.015.
For ANKKARHFNNSA [VAM7 C-terminal 12 aa], in that order: 0.687 ± 0.017 and 0.698 ± 0.019.
In the case of ANMAAYDKAIHC [LPD1 C-terminal 12 aa], the protein stability index is, setting by setting: under setting [1], 0.681 ± 0.018; (genetic background: wild type) 0.708 ± 0.033.
Turning to ANTHSSLICSKP [YBR209W C-terminal 12 aa], the protein stability index is, setting by setting: under setting [1], 0.6854 ± 0.0039; (genetic background: wild type) 0.701 ± 0.044.
In turn, APVAAGESESSL [SRO9 C-terminal 12 aa] gave a protein stability index under setting [1] of 0.6991 ± 0.0048 and a protein stability index (genetic background: wild type) of 0.687 ± 0.007.
For ARNIWRLFLQKI [YLR126C C-terminal 12 aa] the same measures were 0.705 ± 0.058 and 0.168 ± 0.0098.
For ASIGSDIVNNIF [PIN3 C-terminal 12 aa], in that order: 0.712 ± 0.032 and 0.711 ± 0.04.
As to ASLVFPKEKQNV [APC4 C-terminal 12 aa], the protein stability index reads like this: under setting [1], 0.718 ± 0.034; (genetic background: wild type) 0.6902 ± 0.00072.
For ATTSLNNPYGFR [TOS7 C-terminal 12 aa], in that order: 0.675 ± 0.0069 and 0.663 ± 0.03.
For AVDYILRLFGFL [COQ2 C-terminal 12 aa] the same measures were 0.72 ± 0.013 and 0.537 ± 0.019.
Turning to “AVGPRQTGEECR [YER088W-B C-terminal 12 aa]”, the protein stability index is 0.695 ± 0.0098 under setting [1] and 0.66899 ± 0.00042 (genetic background: wild type).
For AYFPQKYKHKYI [PRM6 C-terminal 12 aa] the same measures were 0.689 ± 0.0077 and 0.5656 ± 0.004.
Consider CERCKSELQSVH [SET6 C-terminal 12 aa], for which the protein stability index runs as follows: under setting [1], 0.686 ± 0.0084; (genetic background: wild type) 0.663 ± 0.03.
CEVYCSKNSCAS [YBR099C C-terminal 12 aa]: the protein stability index runs as follows: under setting [1], 0.6895 ± 0.0012; (genetic background: wild type) 0.661 ± 0.031.
As to CFLIGSSDTTSL [OPI6 C-terminal 12 aa], the protein stability index stood at 0.7045 ± 0.0014 under setting [1] and 0.691 ± 0.028 (genetic background: wild type).
For CIAKKVKTYWNK [YIL024C C-terminal 12 aa] the same measures were 0.68219 ± 0.00014 and 0.676 ± 0.023.
Sequence CIGDTDYIERYD [CDA1 C-terminal 12 aa] registered a protein stability index under setting [1] of 0.694 ± 0.015 and a protein stability index (genetic background: wild type) of 0.685 ± 0.031.
In the case of CIISIVVFPTCI [BIO5 C-terminal 12 aa], the protein stability index under setting [1] came out at 0.286 ± 0.016 and the protein stability index (genetic background: wild type) was determined as 0.285 ± 0.0088.
For CIVNLASDTISL [YOL150C C-terminal 12 aa] the same measures were 0.709 ± 0.0077 and 0.667 ± 0.01.
On to CKATSLLLIPEG [YBL108W C-terminal 12 aa], for which the protein stability index reads like this: under setting [1], 0.675 ± 0.018; (genetic background: wild type) 0.659 ± 0.021.
In the case of CLFRYKQLPRRV [MCH2 C-terminal 12 aa], the protein stability index under setting [1] came to 0.69 ± 0.073 and the protein stability index (genetic background: wild type) was determined as 0.687 ± 0.029.
With CLQTESETDIET [LIF1 C-terminal 12 aa], the protein stability index under setting [1] was 0.661 ± 0.0085 and the protein stability index (genetic background: wild type) came out at 0.674 ± 0.013.
Turning to CLRKSPPFVHNT [YMR084W C-terminal 12 aa], the protein stability index by setting is: under setting [1], 0.6939 ± 0.0044; (genetic background: wild type) 0.703 ± 0.022.
For CTIQKMREKANT [YNL028W C-terminal 12 aa] the same measures were 0.677 ± 0.027 and 0.723 ± 0.062.
For CVDCGTVVNNFR [LAF1 C-terminal 12 aa] the same measures were 0.723 ± 0.019 and 0.688 ± 0.025.
As to “CVWESMSNWLQK [YEL034C-A C-terminal 12 aa]”, the protein stability index runs as follows: under setting [1], 0.7238 ± 0.00042; (genetic background: wild type) 0.724 ± 0.015.
DAAIVKKYKNKT [NUP57 C-terminal 12 aa]: the protein stability index reads like this: under setting [1], 0.687 ± 0.025; (genetic background: wild type) 0.692 ± 0.033.
For DDDEDGYNPYTL [PAP2 C-terminal 12 aa] the same measures were 0.7215 ± 0.0049 and 0.697 ± 0.0073.
Consider DDGTKNFIFKNK [ECM23 C-terminal 12 aa], for which the protein stability index runs as follows: under setting [1], 0.7072 ± 0.0034; (genetic background: wild type) 0.706 ± 0.031.
For DDNDDGDDDDDW [MYO3 C-terminal 12 aa] the same measures were 0.68701 ± 0.00044 and 0.7087 ± 0.0034.
For DDNDDSDEREIW [UBR1 C-terminal 12 aa] the same measures were 0.699 ± 0.031 and 0.71 ± 0.029.
For the sequence DDNDTSAYYEDN [GSY1 C-terminal 12 aa], the protein stability index under setting [1] worked out at 0.689 ± 0.0083 and the protein stability index (genetic background: wild type) stood at 0.803 ± 0.073.
In the case of DEASGTPDEDML [GRR1 C-terminal 12 aa], the protein stability index under setting [1] came to 0.6796 ± 0.0046 and the protein stability index (genetic background: wild type) came out at 0.693 ± 0.034.
For DEERPSKKPKVE [POB3 C-terminal 12 aa], in that order: 0.7314 ± 0.0054 and 0.745 ± 0.02.
For DEGVSLVFEVPN [SQT1 C-terminal 12 aa], in that order: 0.683 ± 0.02 and 0.677 ± 0.012.
Consider DENRHSIRIPFN [USB1 C-terminal 12 aa], for which the protein stability index under setting [1] is 0.704 ± 0.015 and the protein stability index (genetic background: wild type) worked out at 0.688 ± 0.013.
As to DFPHEAVVREML [TVP18 C-terminal 12 aa], the protein stability index under setting [1] amounted to 0.7167 ± 0.0023 and the protein stability index (genetic background: wild type) is 0.6914 ± 0.0026.
For DFQNCFPRQRIL [DFP2 C-terminal 12 aa], in that order: 0.7035 ± 0.0037 and 0.2848 ± 0.0028.
Consider DFVDMYQTEHSG [MTF1 C-terminal 12 aa], for which the protein stability index reads like this: under setting [1], 0.712 ± 0.0088; (genetic background: wild type) 0.7301 ± 0.0034.
In the case of DFVYNEEDFEKL [NOT5 C-terminal 12 aa], the protein stability index worked out at 0.718 ± 0.015 under setting [1] and 0.681 ± 0.014 (genetic background: wild type).
For DGKSVNKYGAKK [GUS1 C-terminal 12 aa], in that order: 0.6798 ± 0.0063 and 0.699 ± 0.029.
DGKVIYELEDKE [GET3 C-terminal 12 aa]: the protein stability index runs as follows: under setting [1], 0.727 ± 0.021; (genetic background: wild type) 0.6753 ± 0.0058.
As to DGSGKYFLKHDS [KTR2 C-terminal 12 aa], the protein stability index under setting [1] is 0.706 ± 0.0039 and the protein stability index (genetic background: wild type) was found to be 0.708 ± 0.04.
In the case of DHKVGAQVSYKY [MAD2 C-terminal 12 aa], the protein stability index reads like this: under setting [1], 0.71 ± 0.0075; (genetic background: wild type) 0.675 ± 0.017.
Regarding DIGKKKYSHSSN [RER1 C-terminal 12 aa], the protein stability index by setting is: under setting [1], 0.673 ± 0.043; (genetic background: wild type) 0.686 ± 0.049.
On to DKEQQQQQQQQP [ZDS1 C-terminal 12 aa], for which the protein stability index under setting [1] was 0.702 ± 0.0076 and the protein stability index (genetic background: wild type) was found to be 0.708 ± 0.032.
Turning to DKEVLHVKADSL [FTR1 C-terminal 12 aa], the protein stability index stood at 0.7131 ± 0.0063 under setting [1] and 0.7 ± 0.047 (genetic background: wild type).
For DLAYQYVRALEL [SRB2 C-terminal 12 aa] the same measures were 0.683 ± 0.013 and 0.673 ± 0.0094.
On to DLDLDLFDPDDF [MED4 C-terminal 12 aa], for which the protein stability index by setting is: under setting [1], 0.7055 ± 0.0036; (genetic background: wild type) 0.684 ± 0.044.
For DLSSFFNYRSVQ [SPH1 C-terminal 12 aa], in that order: 0.75 ± 0.015 and 0.7374 ± 0.0021.
Take DLSTRIYSLAYE [ELP2 C-terminal 12 aa]: the protein stability index under setting [1] turned out to be 0.71 ± 0.051 and the protein stability index (genetic background: wild type) stood at 0.665 ± 0.011.
For DLYTEEFLKEGK [PRP39 C-terminal 12 aa] the same measures were 0.683 ± 0.035 and 0.6685 ± 0.0064.
For DNFNSAPSYFSK [MIG3 C-terminal 12 aa] the same measures were 0.6975 ± 0.0012 and 0.682 ± 0.052.
Regarding DNGRIIITGIPN [ECM5 C-terminal 12 aa], the protein stability index by setting is: under setting [1], 0.681 ± 0.024; (genetic background: wild type) 0.675 ± 0.033.
DNYLKYIKALLL [MSH2 C-terminal 12 aa]: the protein stability index is, setting by setting: under setting [1], 0.71 ± 0.029; (genetic background: wild type) 0.445 ± 0.026.
For DPERQNNSNFYN [SMC6 C-terminal 12 aa], in that order: 0.702 ± 0.052 and 0.686 ± 0.026.
As for DPFLYSCSRVAF [YDL196W C-terminal 12 aa], the protein stability index runs as follows: under setting [1], 0.729 ± 0.038; (genetic background: wild type) 0.702 ± 0.012.
For DQIYWFNHFSNV [AIM2 C-terminal 12 aa] the same measures were 0.7141 ± 0.0021 and 0.696 ± 0.027.
For DRKRRKLLWYQA [MRPL20 C-terminal 12 aa] the same measures were 0.718 ± 0.045 and 0.2489 ± 0.00046.
For DSDNAAPLHDEL [KRE5 C-terminal 12 aa] the same measures were 0.687 ± 0.017 and 0.685 ± 0.048.

Values taken from the supplement of paper PMC10724198.
